Source: doi:10.1101/2021.04.01.438030
pKi: −log10 of the molar value.

Target: SNAP-GLP-1R (glucagon-like peptide-1 receptor with an N-terminal SNAP-tag) on HEK293-SNAP-GLP-1R cells (UniProt P43220)
Assay: FRET

Sequence of UniProt P43220 (P43220 24-463): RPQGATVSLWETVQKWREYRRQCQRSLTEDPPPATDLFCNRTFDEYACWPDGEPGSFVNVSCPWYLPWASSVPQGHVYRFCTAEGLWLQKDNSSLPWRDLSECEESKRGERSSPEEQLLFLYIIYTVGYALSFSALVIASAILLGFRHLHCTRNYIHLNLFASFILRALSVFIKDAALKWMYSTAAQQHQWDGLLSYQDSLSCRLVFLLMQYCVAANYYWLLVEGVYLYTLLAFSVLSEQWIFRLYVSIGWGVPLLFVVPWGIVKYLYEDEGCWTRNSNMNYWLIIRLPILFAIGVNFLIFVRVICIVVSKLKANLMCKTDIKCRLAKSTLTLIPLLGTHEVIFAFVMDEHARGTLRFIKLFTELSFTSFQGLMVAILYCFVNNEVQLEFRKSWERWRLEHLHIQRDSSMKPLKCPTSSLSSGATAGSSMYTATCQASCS

| Substance | pKi |
| --- | --- |
| exendin-4 (from UniProt P26349 48-87) | 9.20 |
| exendin-4-C16 (from UniProt P26349 48-87) | 8.80 |
